Test results from IntAct's records for PubMed 22770221.

B1: 14-3-3 protein epsilon (Rattus norvegicus (Rat)), P62260 (parent)
chain: MDDREDLVYQAKLAEQAERYDEMVESMKKVAGMDVELTVEERNLLSVAYKNVIGARRASWRIISSIEQKEENKGGEDKLKMIREYRQMVETELKLICCDILDVLDKHLIPAANTGESKVFYYKMKGDYHRYLAEFATGNDRKEAAENSLVAYKAASDIAMTELPPTHPIRLGLALNFSVFYYEILNSPDRACRLAKAAFDDAIAELDTLSEESYKDSTLIMQLLRDNLTLWTSDMQGDGEEQNKEALQDVEDENQ
partner: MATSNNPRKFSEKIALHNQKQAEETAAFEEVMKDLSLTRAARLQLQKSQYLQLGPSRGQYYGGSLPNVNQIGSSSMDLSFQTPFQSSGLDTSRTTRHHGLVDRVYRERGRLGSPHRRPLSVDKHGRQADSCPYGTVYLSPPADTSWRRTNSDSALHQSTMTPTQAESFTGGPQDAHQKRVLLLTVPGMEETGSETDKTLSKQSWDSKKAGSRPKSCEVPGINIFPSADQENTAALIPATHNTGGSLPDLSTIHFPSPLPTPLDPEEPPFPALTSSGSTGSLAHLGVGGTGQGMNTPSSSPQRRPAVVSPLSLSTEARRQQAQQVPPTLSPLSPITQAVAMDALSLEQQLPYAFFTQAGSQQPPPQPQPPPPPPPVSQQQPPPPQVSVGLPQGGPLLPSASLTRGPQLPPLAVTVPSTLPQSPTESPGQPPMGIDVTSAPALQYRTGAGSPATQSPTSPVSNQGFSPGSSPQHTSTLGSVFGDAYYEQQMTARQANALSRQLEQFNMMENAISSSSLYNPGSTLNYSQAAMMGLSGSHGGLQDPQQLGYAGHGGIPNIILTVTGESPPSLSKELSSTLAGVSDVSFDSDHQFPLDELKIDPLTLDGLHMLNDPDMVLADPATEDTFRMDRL

Variants of: B1
Conditions: with crtc1_rat Crtc1, Q157S1

| Variant | effect of a mutation on the interaction |
| --- | --- |
| MDDREDLVYQAKLAEQAERYDEMVESMKKVAGMDVELTVEERNLLSVAYENVIGARRASWRIISSIEQKEENKGGEDKLKMIREYRQMVETELKLICCDILDVLDKHLIPAANTGESKVFYYKMKGDYHRYLAEFATGNDRKEAAENSLVAYKAASDIAMTELPPTHPIRLGLALNFSVFYYEILNSPDRACRLAKAAFDDAIAELDTLSEESYKDSTLIMQLLRDNLTLWTSDMQGDGEEQNKEALQDVEDENQ [K50E] | decreasing interaction strength |
